Results: patent US20030012792

Molecular target: alpha-1 antichymotrypsin (ACT, Sigma Chemical Co.) (UniProt P01011)
Sequence (P01011 24-423): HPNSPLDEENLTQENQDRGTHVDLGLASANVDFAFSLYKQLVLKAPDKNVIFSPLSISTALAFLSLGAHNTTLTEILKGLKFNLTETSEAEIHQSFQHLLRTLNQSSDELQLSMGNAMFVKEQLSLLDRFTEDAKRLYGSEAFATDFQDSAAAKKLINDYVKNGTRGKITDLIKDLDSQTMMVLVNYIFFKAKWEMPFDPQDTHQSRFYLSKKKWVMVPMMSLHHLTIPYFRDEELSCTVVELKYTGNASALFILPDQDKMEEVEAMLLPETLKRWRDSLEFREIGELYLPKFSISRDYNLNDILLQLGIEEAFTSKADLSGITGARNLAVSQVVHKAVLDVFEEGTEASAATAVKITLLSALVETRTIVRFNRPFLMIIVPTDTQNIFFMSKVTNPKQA

Substance: Human Prostate-Specific Antigen (purified human PSA, Vitro Diagnostics)
- proteolytic (serine protease) activity of PSA on synthetic substrate S-2586, absorbance at 405 nm: preincubation of PSA with ACT blocked both serine protease activity of purified PSA (FIG. 11)
